Assay results: paper PMC9696751
Ends that are not written are not given here.

Target: nano-HER2-E3 (UniProt P04637)
Experiment: SEC; analytical chromatography on Superdex 200 Increase 5/150 GL; equimolar mixtures

B1: 647-C-K3 (peptide)
peptide: C(Alexa‑647 maleimide)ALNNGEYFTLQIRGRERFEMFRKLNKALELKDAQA
  formation of the complexes (percent): < 95%
